Laboratory results taken from US11123408B2, “Compositions and methods for treating nonsteroidal anti-inflammatory drug (NSAID) associated coagulopathy, thrombocytopenia, glanzmann's thrombasthenia, and/or thrombosis” (YALE UNIVERSITY, priority 2011, dated 2021).
“Also recorded” adds a separate entry of the source.

How the values were obtained:
[1] = system: platelets in platelet rich plasma; assay: Light transmission aggregometry (LTA) in platelet rich plasma; assay type: cell-based, human
Procedure: (§1) Whole blood from healthy voluntary donors was collected in accordance with an IRB-approved protocol into blue top vacutainer tubes containing 3.2% sodium citrate. Blood was centrifuged at 1000 RPM for 10 minutes at room temperature to collect platelet rich plasma (PRP). PRP in the supernatant was then transferred to fresh tubes, and the remainder of the specimen was centrifuged at 4000 RPM for 10 minutes to obtain platelet poor plasma (PPP). PRP was adjusted to a final platelet count of 250×10^6 platelets/mL with autologous PPP for use in aggregation studies. Potential donors were excluded if there was a history of a bleeding disorder or current anticoagulant use and donors were instructed to avoid NSAIDs for at least 7 days prior to donation. Approval for the human subjects involved in this research was sought and granted by the Committee for the Protection of Human Subjects, Dartmouth-Hitchcock Medical Center, where these studies were conducted in accordance with the Declaration of Helsinki.
(§2) Light transmission (i.e., optical) and lumi aggregometry were performed on up to four samples from the same individual simultaneously with a Chrono-Log Model 700 Whole Blood/Optical Lumi Aggregometer (Chrono-Log Corporation, Havertown, Pa.) using procedures provided by the manufacturer that are briefly summarized here.
(§3) Platelet aggregation was determined by measuring the change in light transmittance of stirred PRP over time after addition of various agonists. Prior to each experiment the aggregometer was standardized to reflect 100% and 0% light transmittance with PPP and PRP, respectively, from the donor whose platelets were used in each specific experiment. 500 μL PRP was added to cuvettes containing a magnetic stir bar and allowed to pre-warm to 37° C. in the aggregometer wells for 3 minutes prior to initiating aggregation reactions which were then conducted at 37° C. Aggregation reactions were initiated by direct addition of agonists and/or enzymes to warmed, stirred PRP, and were monitored for an increase in light transmittance for 10 minutes. The increase in light transmittance is directly proportional to the amount of aggregation and is amplified and digitized into a computer (HP Compaq, Hewlett-Packard, Palo Alto, Calif.) with the AGGRO/LINK8 for Windows software (Chrono-Log Corporation, Havertown, Pa.) to generate aggregation curves. […] The platelet aggregometry experiments for all concentrations of MRS 2395 (including the 0 μM point) were conducted with the plasma adjusted to a final concentration of 10% DMSO to solubilize the inhibitor.

[2] = system: platelets in platelet rich plasma; assay: Lumi aggregometry (extracellular ATP, dense granule release) simultaneously with LTA; assay type: cell-based, human
Procedure: as §1, §2, §3
In a subgroup of experiments, lumi aggregometry was used to assay the levels of extracellular ATP simultaneously with LTA. Lumi aggregometry measures ATP in the extracellular space over time using a sensitive luminescent assay employing firefly luciferin-luciferase (CHRONO-LUME™ reagent, Chrono-Log Corporation, Havertown, Pa.). ATP binds to luciferin-luciferase and generates light that is then amplified by a high-gain photomultiplier tube in the lumi aggregometer and is measured simultaneously with the optical change in light transmittance caused by platelet aggregation. In experiments in which lumi aggregometry was performed, 450 μL of PRP was transferred to cuvettes containing magnetic stir bars and allowed to pre-warm to 37° C. in the aggregometer wells for 3 minutes. […] Reactions were initiated by the addition of agonists and/or enzymes to warmed PRP and CHRONOLUME′ reagent and were monitored for light generation. […]

B1: NPP4: soluble recombinant extracellular domain of human NPP4 (NCBI AAH18054.1, residues 1-407 of SEQ ID NO:1), expressed in insect cells (protein, listed as Homo sapiens)
chain: MKLLVILLFSGLITGFRSDSSSSLPPKLLLVSFDGFRADYLKNYEFPHLQNFIKEGVLVEHVKNVFITKTFPNHYSIVTGLYEESHGIVANSMYDAVTKKHFSDSNDKDPFWWNEAVPIWVTNQLQENRSSAAAMWPGTDVPIHDTISSYFMNYNSSVSFEERLNNITMWLNNSNPPVTFATLYWEEPDASGHKYGPEDKENMSRVLKKIDDLIGDLVQRLKMLGLWENLNVIITSDHGMTQCSQDRLINLDSCIDHSYYTLIDLSPVAAILPKINRTEVYNKLKNCSPHMNVYLKEDIPNRFYYQHNDRIQPIILVADEGWTIVLNESSQKLGDHGYDNSLPSMHPFLAAHGPAFHKGYKHSTINIVDIYPMMCHILGLKPHPNNGTFGHTKCLLVDQWCINLPEA
maximum aggregation ([1]; 100 nM NPP4 at 80 μM Ap3A): 80%
maximum aggregation ([1]; 200 nM NPP4 at 80 μM Ap3A): 90%
platelet aggregation response of enzyme in the presence of 80 μM Ap3A (qualitative) ([1]; 80 μM Ap3A, enzyme 50-200 nM): strong primary and secondary aggregation waves
platelet aggregation response, agent alone (qualitative) ([1]; agent alone in PRP (Ap3A up to 160 μM; NPP4 100 nM)): does not trigger platelet aggregation
time to granule release ([2]; 100 nM NPP4 with 40 μM Ap3A): ~1.5 min
platelet aggregation and dense granule (ATP) release, enzyme with Ap3A (qualitative) ([2]; 100 nM enzyme with 40 μM Ap3A): ATP release and platelet aggregation were simultaneously seen; also recorded: strong platelet aggregation and dense granule release
